Consider one substance from patent publication WO2020219978A1.

What is called EC50 is the midpoint of the concentration-response curve. Read a high EC50 as a less potent agent.

Assay [1] has as its target cynomolgus BCMA (cyno-BCMA), as used in SPR (cynomolgus monkey). Put plainly: SPR. (In general: Surface plasmon resonance follows binding to a sensor surface in real time, without labels.)
The target in assay [2] is BCMA on the BCMA+ cell lines (NCI-H929, L363, JJN-3, RPMI-8226, HEK293T-huBCMA, HEK293T-cynoBCMA). The assay is described as follows: flow cytometry on BCMA+ cell lines.

Sequence of cynomolgus BCMA (cyno-BCMA), as used in SPR (cynomolgus monkey) (chain, as listed by the source): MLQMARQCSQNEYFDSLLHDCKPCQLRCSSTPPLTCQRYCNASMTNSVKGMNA

“CC-93269, bispecific trivalent anti-BCMA/anti-CD3 T cell engaging antibody (TCE) (bispecific antibody)”: in assay [1], the fold higher affinity than to rodent BCMA is 10 fold. The same substance had an EC50 in assay [2] of 3.4 to 15.2 nM.
